One may read the Kd as the constant that tells how readily two partners part at equilibrium. A higher Kd goes with lower affinity.

The record followed here is PMC2788276 (Protein Science : A Publication of the Protein Society, 2009).

Data set [1] addresses HCoV-OC43 N1-173 (N-terminal domain) (Human coronavirus OC43, UniProt P33469 1-173). Put plainly: SPR. (In general: SPR reads the build-up and loss of mass on a sensor chip optically.)
In data set [2] the target is HCoV-OC43 N301-448 (C-terminal domain) (Human coronavirus OC43, UniProt P33469 301-448). Put plainly: SPR.
In data set [3] the target is HCoV-OC43 N233-300 (central linker) (Human coronavirus OC43, UniProt P33469 233-300). Put plainly: SPR.
The data set “cross-linking” deals with the molecule itself. Put plainly: cross-linking.

Chain of HCoV-OC43 N1-173 (N-terminal domain) (P33469 1-173): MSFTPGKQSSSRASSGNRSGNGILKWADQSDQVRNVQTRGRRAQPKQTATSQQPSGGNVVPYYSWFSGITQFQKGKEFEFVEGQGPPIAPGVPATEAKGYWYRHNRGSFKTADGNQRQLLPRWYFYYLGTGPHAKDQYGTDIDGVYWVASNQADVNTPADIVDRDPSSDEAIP

B1: (UCUAAAC)4 intergenic repeat RNA (ssRNA)
RNA: UCUAAACUCUAAACUCUAAACUCUAAAC
Regarding B1, the equilibrium dissociation constant (Kd) in data set [1] amounted to 68.9 ± 8.4 nM; in data set [3], 64.1 ± 7.2 nM. The binding result in data set [2] is reported as “no binding”.

B2: HCoV‐OC43 N protein, residues 233–448 (domain or fragment)
chain: ADQIASLVLAKLGKDATKPQQVTKHTAKEVRQKILNKPRQKRSPNKQCTVQQCFGKRGPNQNFGGGEMLKLGTSDPQFPILAELAPTAGAFFFGSRLELAKVQNLSGNPDEPQKDVYELRYNGAIRFDSTLSGFETIMKVLNENLNAYQQQDGMMNMSPKPQRQRGHKNGQGENDNISVAVPKSRVQQNKSRELTAEDISLLKKMDEPYTEDTSEI
For the molecule B2, the binding result in the data set “cross-linking” is listed as “binds”.
